Consider one molecule from paper PMC1226315 (Nucleic Acids Research, 2005).

The target in this assay is human wild-type Cdk2 GST fusion protein (human, UniProt P24941 1-298). Briefly: pull-down.

B1: Recombinant human wild-type DNA polymerase λ, His-tagged (enzyme)
chain: MDPRGILKAFPKRQKIHADASSKVLAKIPRREEGEEAEEWLSSLRAHVVRTGIGRARAELFEKQIVQHGGQLCPAQGPGVTHIVVDEGMDYERALRLLRLPQLPPGAQLVKSAWLSLCLQERRLVDVAGFSIFIPSRYLDHPQPSKAEQDASIPPGTHEALLQTALSPPPPPTRPVSPPQKAKEAPNTQAQPISDDEASDGEETQVSAADLEALISGHYPTSLEGDCEPSPAPAVLDKWVCAQPSSQKATNHNLHITEKLEVLAKAYSVQGDKWRALGYAKAINALKSFHKPVTSYQEACSIPGIGKRMAEKIIEILESGHLRKLDHISESVPVLELFSNIWGAGTKTAQMWYQQGFRSLEDIRSQASLTTQQAIGLKHYSDFLERMPREEATEIEQTVQKAAQAFNSGLLCVACGSYRRGKATCGDVDVLITHPDGRSHRGIFSRLLDSLRQEGFLTDDLVSQEENGQQQKYLGVCRLPGPGRRHRRLDIIVVPYSEFACALLYFTGSAHFNRSMRALAKTKGMSLSEHALSTAVVRNTHGCKVGPGRVLPTPTEKDVFRLLGLPYREPAERDW
B1: the binding result is “binds”.
